Holding throughout (conditions): Homo sapiens
In data set [1] the test system is Nc1ncnc2c1ncn2-c1ccc(CO)o1. Nature of the data set: (§1) Ratio of Kcat to Km for recombinant AK2 (unknown origin).
The test system of data set [2] is Nc1ncnc2c1ncn2[C@H]1C[C@H](O)[C@@H](COP(=O)(O)O)O1. The data set is described as §1.
Data set [3] concerns Nc1ncnc2c1ncn2-c1ccc(COCP(=O)(O)O)o1. The description is as §1.
The subject of data set [4] is Nc1ncnc2c1ncn2[C@@H]1O[C@H](COP(=O)(O)O)[C@@H](O)[C@H]1O. The description is as §1.
The test system of data set [5] is Nc1ncnc2c1ncn2CCOCP(=O)(O)O. The data set is described as §1.
For data set [6], the system named is C[C@H](Cn1cnc2c(N)ncnc21)OCP(=O)(O)O. The data set is described as §1.
For data set [7], the system named is Nc1ncnc2c1ncn2-c1ccc(CO)o1. Nature of the data set: (§2) Activity of recombinant AK2 (unknown origin) assessed as ADP formation by spectroscopic pyruvate kinase/lactate dehydrogenase coupled assay.
Data set [8] concerns Nc1ncnc2c1ncn2[C@H]1C[C@H](O)[C@@H](COP(=O)(O)O)O1. The description is as §2.
Data set [9] deals with Nc1ncnc2c1ncn2-c1ccc(COCP(=O)(O)O)o1. The description is as §2.
The test system of data set [10] is Nc1ncnc2c1ncn2[C@@H]1O[C@H](COP(=O)(O)O)[C@@H](O)[C@H]1O. Described as §2.
The subject of data set [11] is Nc1ncnc2c1ncn2CCOCP(=O)(O)O. The description is as §2.
For data set [12], the system named is C[C@H](Cn1cnc2c(N)ncnc21)OCP(=O)(O)O. Described as §2.

As usually defined, the Km is the substrate concentration at which the rate is half of its maximum. Usually kcat stands for the maximal rate divided by the concentration of active sites. Turning to “Adenylate kinase 2, mitochondrial (Homo sapiens) (from UniProt P54819)”, the kcat/Km entry in [1] is “Not Active”; in [2], 0.5 ×10⁶ /M/s; in [3], 0.025 ×10⁶ /M/s; in data set [4], 0.21 ×10⁶ /M/s; in data set [5] it was 250 ×10⁶ /M/s; in [6], 800 M⁻¹ s⁻¹. Also, the Km entry in [7] was “Not Active”; in [8], 210 µM; in [9], 420 µM; in [10] it was 380 µM; in data set [11], 6 mM; in data set [12], 3000 µM. For the same substance, the kcat entry in data set [7] is “Not Active”; in data set [8], 110 s⁻¹; in [9] it was 1.06 s⁻¹; in data set [10] it was 80 s⁻¹; in data set [11] it was 1.5 s⁻¹; in data set [12], 2.4 s⁻¹.

These data come from ChEMBL document CHEMBL3352481, “Synthesis of {[5-(adenin-9-yl)-2-furyl]methoxy}methyl phosphonic acid and evaluations against human adenylate kinases” (Bioorg Med Chem Lett, 2014).
